Assays:
[1] = biological target: recombinant human VEGF165 (human) (UniProt P15692); assay: blocking ELISA, negative control: 1 nM VEGF bound to wells coated with VEGFR2 (sFlk-1) with 100 nM control IgG of irrelevant specificity (100x) present; bound VEGF detected with rabbit anti-VEGF A-20; the number measures VEGF:VEGFR2 binding, not binding of the control IgG to VEGF
[2] = biological target: recombinant human VEGF165 (human) (UniProt P15692); assay: blocking ELISA, negative control: 1 nM VEGF bound to wells coated with VEGFR2 (sFlk-1) with 1000 nM control IgG of irrelevant specificity (1000x) present; bound VEGF detected with rabbit anti-VEGF A-20; the number measures VEGF:VEGFR2 binding, not binding of the control IgG to VEGF
[3] = biological target: recombinant human VEGF165 (human) (UniProt P15692); assay: blocking ELISA, negative control: 1 nM VEGF bound to wells coated with VEGFR1 (Flt-1/Fc) with 1000 nM control IgG of irrelevant specificity (1000x) present; bound VEGF detected with rabbit anti-VEGF A-20; the number measures VEGF:VEGFR1 binding, not binding of the control IgG to VEGF
[4] = biological target: recombinant human VEGF165 (human) (UniProt P15692); assay: blocking ELISA, negative control: 1 nM VEGF bound to wells coated with VEGFR1 (Flt-1/Fc) with 100 nM control IgG of irrelevant specificity (100x) present; bound VEGF detected with rabbit anti-VEGF A-20; the number measures VEGF:VEGFR1 binding, not binding of the control IgG to VEGF
[5] = biological target: VEGF:sFlk-1 complex (human; mouse) (UniProt P15692); assay: capture ELISA: biotinylated sFlk-1 complexed with VEGF titrated onto wells coated with the antibody; concentration giving 50% maximal binding; extrapolated value
Chain of VEGF:sFlk-1 complex (human; mouse) (P15692 other isoform, or with tags, fused parts or gaps limits assumed, chain 1 of 2): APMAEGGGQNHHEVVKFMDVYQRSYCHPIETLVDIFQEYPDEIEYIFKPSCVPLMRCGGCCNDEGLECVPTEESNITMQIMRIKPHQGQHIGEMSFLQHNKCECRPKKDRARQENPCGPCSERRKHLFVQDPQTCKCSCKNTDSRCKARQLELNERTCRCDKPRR
Chain of VEGF:sFlk-1 complex (human; mouse) (P35918 20-762 limits assumed, chain 2 of 2, further chain): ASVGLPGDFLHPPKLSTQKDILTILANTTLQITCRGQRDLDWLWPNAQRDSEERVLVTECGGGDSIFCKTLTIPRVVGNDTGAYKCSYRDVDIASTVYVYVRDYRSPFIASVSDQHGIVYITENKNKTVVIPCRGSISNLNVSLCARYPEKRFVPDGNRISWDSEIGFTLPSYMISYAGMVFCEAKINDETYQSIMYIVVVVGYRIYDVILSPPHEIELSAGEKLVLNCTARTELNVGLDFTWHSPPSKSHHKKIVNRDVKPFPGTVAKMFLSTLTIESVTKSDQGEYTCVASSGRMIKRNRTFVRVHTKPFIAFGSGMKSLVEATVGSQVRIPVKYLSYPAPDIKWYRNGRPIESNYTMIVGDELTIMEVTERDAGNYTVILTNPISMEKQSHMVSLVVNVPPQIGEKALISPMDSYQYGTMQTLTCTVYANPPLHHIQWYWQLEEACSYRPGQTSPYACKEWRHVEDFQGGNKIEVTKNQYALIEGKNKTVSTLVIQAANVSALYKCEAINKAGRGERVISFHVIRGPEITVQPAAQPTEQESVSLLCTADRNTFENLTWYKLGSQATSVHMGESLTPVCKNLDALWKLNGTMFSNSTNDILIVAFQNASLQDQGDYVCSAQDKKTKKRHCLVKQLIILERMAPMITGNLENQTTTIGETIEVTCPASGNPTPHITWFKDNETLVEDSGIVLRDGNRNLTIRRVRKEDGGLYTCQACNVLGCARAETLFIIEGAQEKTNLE

Chain of recombinant human VEGF165 (human) (P15692 other isoform, or with tags, fused parts or gaps): as the sequence (P15692 other isoform, or with tags, fused parts or gaps limits assumed, chain 1 of 2) above

% of VEGF alone [1] [%]	% of VEGF alone [2] [%]	% of VEGF alone [3] [%]	% of VEGF alone [4] [%]	EC50 [5] [nM]	Substance
96	93	92	98	–	control IgG of irrelevant specificity (antibody)
–	–	–	–	600	irrelevant IgM (negative control) (antibody)
–	–	–	–	500	A4.6.1, mouse anti-human VEGF monoclonal antibody (Genentech)
